Tests used:
[1] = target: mouse fibulin-2 construct S427-G545, three anaphylatoxin-like modules (mutant C500L) (mouse) (UniProt P37889); assay: SEC-MALS; 50 µL of ~2 mg/mL SEC purified protein on Superdex 200 Increase 10/300, 20 mM Tris-HCl pH 8, 150 mM NaCl, 0.5 mL/min
[2] = target: the molecule itself; assay: as above

Molecule	stoichiometry N [1]	stoichiometry N [2]
mouse fibulin-2 construct S427-G545, three anaphylatoxin-like modules (mutant C500L) (from UniProt P37889 427-545) (domain or fragment)	2	–
mouse fibulin-2 construct S427-G545, three anaphylatoxin-like modules (wild-type) (domain or fragment, UniProt P37889 427-545, looked up, fibulin-2, mouse, residues S427-G545 (three anaphylatoxin-like modules); numbering is according to the full-length protein; Homodimer linked by an inter-molecular disulfide bond via C500; 8 intra-molecular disulfide bonds in each chain; also called MH6M-S427-G545; pAS79 construct; source: E. coli BL21 (DE3) with the CyDisCo plasmid pMJS205 (Erv1p and PDI), purified (nickel IMAC, SEC); not shown: …) STKDLIETCCAAGQQWAIDNDECQEIPENGAQSDICRIAQRQCCISYLKEKSCVAGVMGAKEGETCGAEDNDTCGVSLYKQCCDCCGLGLRVRAEGQSCESNPNLGYPCNHVMLSCCEG	–	2

From publication PMC11220139, “Biophysical and structural studies of fibulin-2” (Scientific Reports, 2024)
